# Results taken from the supplement of paper PMC11865577.
# Assays:
# Test in all cases: pull-down binding Z-score (relative to library population); higher = stronger binding
# [1] = test system: TO-3-N3-2 (biotin conjugate); conditions: RNA library: Library-2
# Summary of the method: (§1)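 To score binding, a beads-only signal was subtracted, barcoded replicate probes were averaged with the highest and lowest dropped, and the value was converted to a Z-score using the library mean and standard deviation. The input was 1 μg of Cy5- or Cy3-end-labelled RNA library, heat-folded in phosphate/NaCl/KCl buffer and mixed for 60 min at 25 °C with streptavidin beads carrying 100 pmol of biotin-conjugated small molecule. Bound RNA was eluted in hot SDS and hybridised to a DNA barcode microarray at 55.5 °C for 20 h.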
# [2] = test system: TO-N3-2 (biotin conjugate); conditions: RNA library: Library-2
# Summary of the method: as §1
# [3] = test system: G-clamp-N3 (biotin conjugate); conditions: RNA library: Library-1 (pre-miRNA loops + repeats)
# Summary of the method: as §1
# [4] = test system: TO-3-N3 (biotin conjugate); conditions: RNA library: Library-2
# Summary of the method: as §1
# TO-N3 (biotin conjugate) = conditions: RNA library: Library-2
# Summary of the method: as §1
Sequence,pull-down binding Z-score [1],pull-down binding Z-score [2],pull-down binding Z-score [3],pull-down binding Z-score [4],pull-down binding Z-score (TO-N3 (biotin conjugate))
UGUUUAUGUUAUUUAUGGUUAAACA [hsa-mir-376c],-0.269,-0.967,0.239,-0.655,-0.887
UGUUUCUUUAAUGAGGACGAAACA [hsa-mir-329-1],0.302,-0.326,1.67,0.65,0.46
UGUUUCUUUAUUGAGGACGAAACA [hsa-mir-329-2],-0.343,-0.89,0.973,-0.144,-0.5
UGUUUGUGUCUAAACUAUCAAACG [hsa-mir-122],-0.158,-0.625,-0.679,-0.183,-0.332
UGUUUUUGCCAUUAAAAAUAAUGGCAUUAAAAGUAAUGGCAAAAACG [hsa-mir-548al],-0.431,-1.14,-0.871,-0.484,-1.01
UUAAAUGUGUCAUUUAAAAAUUCAG [hsa-mir-1972-1_1972-2],0.161,-0.257,-1.87,-0.0749,-0.138
UUAACAUGUUGAGCAUUACUCAUGUUAG [hsa-mir-3684],-0.175,-0.162,-0.319,-0.527,-0.597
UUAACCUAAAAUGAGAAGGCUAA [hsa-mir-633],-0.223,-0.637,-1.29,-0.0885,-0.212
UUAAUGAGGCCAUAGA [hsa-mir-6863],-0.277,-0.294,-0.397,-0.374,-0.328
UUACCCAACGUCUCUGAGUCUCGGUUUUGAGAGGGUGAGUAA [hsa-mir-7973-1],-0.0539,0.29,0.981,0.0875,0.268
UUACUCACCCUCUCAAAACCGAGACUCAGAGACGUUGGGUAA [hsa-mir-7973-2],0.138,0.271,-1.63,-0.25,-0.0759
UUACUGCAGGGAUCUUAGCAGUAC [hsa-mir-583],0.0351,0.435,-0.752,0.295,0.303
UUAGCCCAGCAAUGGGAGAGUGCUAA [hsa-mir-4636],0.32,0.154,0.508,0.252,0.111
UUAUACCUGAUGCUCACGUAUAA [hsa-mir-208a],-0.0463,-0.742,-0.85,0.398,0.187
UUAUCUGUCACCAGUCAGAUAACUGUCACCAGUCAGUUAA [hsa-mir-4764],-0.324,-0.396,-0.644,-0.842,-0.684
UUAUGUUUCUGAUCCGAAUAUAA [hsa-mir-208b],-0.345,-0.679,0.538,-0.229,-0.483
UUAUUCAGAGAGGCUAGAUCCUCUGUGUUGAGAAGGAUCA [hsa-mir-433],0.23,-0.0231,0.503,-0.385,-0.151
UUAUUUGAGAUGAGUUACAUCUUGGAGG [hsa-mir-1204],-0.295,-0.536,-0.564,0.0122,-0.0949
UUCACAGACUCUCCAAAAGUCUGAA [hsa-mir-4670],-0.404,-0.533,-1.33,-0.362,-0.543
UUCAGAGUCAAUAUAAUUUUCUAG [hsa-mir-29a],0.27,-0.467,0.0825,0.749,0.485
UUCAGAUUUUGGAACAUUUCGGAUUUUGGA [hsa-mir-1290],-0.35,-1.15,2.01,-0.172,-0.297
UUCAGCCUAAAGCAAUGAGAAGCCUCUGAAAGGCUGA [hsa-mir-1827],-0.0588,0.76,-0.0259,-0.198,0.212
UUCAUAGGGAAGCCUUUCCAUGAA [hsa-mir-4738],-0.446,-0.574,-0.912,-0.542,-0.559
UUCAUGUUCACUGAAAGGUAGAUUUUAAAAACAUGAA [hsa-mir-4790],0.268,-0.575,-0.0488,-0.15,-0.371
UUCAUUCAUUCGUUUGCACAUUCGGUGAA [hsa-mir-493],-0.21,-0.394,0.183,-0.556,-0.736

Sequence,pull-down binding Z-score [1],pull-down binding Z-score [2],pull-down binding Z-score [3],pull-down binding Z-score [4],pull-down binding Z-score (TO-N3 (biotin conjugate))
UUCAUUUUAUUUAUGAUGAG [hsa-mir-496],-0.288,-1.33,1.12,-0.959,-1.2
UUCCGGUGAUUAUCACAGCCAUGCCUUUACCUCCAGAA [hsa-mir-4493],-0.0994,-0.00535,-0.101,-0.84,-0.594
UUCCUUGUCUGUAGCCAUGUCUAUGGGCUCUUGAG [hsa-mir-571],-0.0353,-0.131,-0.205,0.494,0.461
UUCGCAUUAUUUAAUGAUGCCCA [hsa-mir-323b],-0.241,-0.486,-0.751,-0.392,-0.467
UUCGCGGUUGGGCU [hsa-mir-3143],0.258,0.693,0.897,1.21,1.33
UUCUAAUGCCAAGAA [hsa-mir-1279],-0.117,-0.306,-0.241,0.835,0.773
UUCUAGUCCCUAUUAGACUAGAA [hsa-mir-5681a],-0.506,-1.08,-0.692,-0.543,-1
UUCUCCUUGGGAAAAACAGAGAA [hsa-mir-605],-0.016,-0.414,-0.311,-0.446,-0.65
UUCUCGAGUCUAUGGCUCCGGCCGAGAG [hsa-mir-219a-1],0.358,1.1,-0.199,0.197,0.342
UUCUCGGUUGGCCGCAGACUCGUACAAGAA [hsa-mir-219b],0.0156,0.724,0.895,-0.383,0.0802
UUCUCUUUAUUUAUGAUGAA [hsa-mir-494],-0.639,-1.8,-1.25,-0.968,-1.56
UUCUGCUGAAGACUGGUCUCUUCAUGUGUGAG [hsa-mir-6133],-0.0941,0.00769,-0.872,-0.389,-0.371
UUCUGCUGUGCCUUACAGCAGUAGAA [hsa-mir-3179-4_3179-1_3179-3_3179-2],-0.383,-0.695,0.67,0.188,0.0349
UUCUGUGGUUUGAAAGGAA [hsa-mir-1323],0.281,-0.252,1.07,0.85,0.444
UUCUGUUGUCAGAAAGAAGAGAA [hsa-mir-1283-1],-0.107,-0.0355,0.462,0.146,0.0942
UUCUGUUGUCUGAAAGAAAAGAA [hsa-mir-1283-2],-0.145,-0.382,0.164,-0.517,-0.429
UUCUGUUGUCUGAAAGAAACCAA [hsa-mir-518d],-0.0975,0.126,-1.34,-0.253,-0.0135
UUCUUCCUGGAGUCGGGGAAAAG [hsa-mir-320e],-0.0301,0.278,1.31,0.308,0.516
UUCUUGUACGAGUCUGCGGCCAACCGAGAA [hsa-mir-219a-2],-0.366,0.974,-0.0874,-0.402,0.347
UUCUUUGAGGAUCUGGCCUAAAGAG [hsa-mir-202],0.362,0.811,-0.443,1.14,1.27
UUCUUUUUUCUGAAAUUCUUCAGGAAGGA [hsa-mir-3167],0.823,-0.017,-0.0544,0.368,0.0883
UUGAACUUCAUUUCUCAUGCUCA [hsa-mir-6870],0.277,0.145,-1.6,-0.278,-0.104
UUGAAUCACACACACAUUUCAA [hsa-mir-4803],-0.154,-0.644,-0.451,-0.208,-0.366
UUGACCAAUCAUCUUAUUGACUAGA [hsa-mir-6502],-0.177,-0.496,-1.52,-0.403,-0.471
UUGAGAACCAG [hsa-mir-4328],0.215,1.04,-0.606,1.74,1.79

Sequence,pull-down binding Z-score [1],pull-down binding Z-score [2],pull-down binding Z-score [3],pull-down binding Z-score [4],pull-down binding Z-score (TO-N3 (biotin conjugate))
UUGAGAAGUAAUUGA [hsa-mir-548ak],-0.0284,-0.239,0.0758,0.404,0.251
UUGAGCAUCUUCUGGGCAGCUGA [hsa-mir-7854],0.147,0.833,-0.764,-0.0613,0.397
UUGAGGAGAGCACCACAGUGGUCAUCACACAG [hsa-mir-622],0.109,1.19,-1.25,0.0413,0.871
UUGAGGGACAUGGUUAAUGGAAUUGUCUCA [hsa-mir-342],0.0248,0.641,0.369,0.338,0.413
UUGAUGUCAGAAUGAGGUGUACCAA [hsa-mir-4714],0.1,-0.099,1.29,-0.499,-0.148
UUGAUGUCAGGUUAUCCCCAAGCAUAACCUCAC [hsa-mir-4639],-0.186,-0.0627,-1.21,-0.576,-0.499
UUGAUUCAGUAAAACAUUCAA [hsa-mir-891b],-0.0671,-0.902,-0.189,-0.376,-0.695
UUGCCCAA [hsa-mir-548bb],-0.317,-0.332,0.764,-0.0547,-0.211
UUGCUCACGGUAAGAAAAACAUGAGUAA [hsa-mir-8062],0.384,-0.388,0.431,0.553,0.238
UUGCUCUUUGGUGGAGAUA [hsa-mir-6074],-0.00756,0.241,0.646,0.509,0.505
UUGCUUAAG [hsa-mir-924],-0.269,-0.696,-0.513,0.586,0.3
UUGGCACAGGGAAGCGAGUCUGCCAA [hsa-mir-195],0.354,1.23,2.53,0.0632,0.504
UUGGCCUUUAUUUUCAAUGGCAAG [hsa-mir-548b],-0.117,0.0975,-0.0843,0.655,0.349
UUGGCGUAGUGAAAUAUAUAUUAAACACCAA [hsa-mir-16-2],0.371,0.0267,-0.484,0.128,0.0274
UUGGCGUUAAGAUUCUAAAAUUAUCUCCAG [hsa-mir-16-1],-0.307,-0.642,-1.03,-0.825,-0.952
UUGGGAUCCACCUUUCUCUCGA [hsa-mir-196b],0.21,-0.031,-0.507,0.578,0.471
UUGGGGAGGAGCUAAGAAGCCCCUACAGGGCCCAG [hsa-mir-4257],0.24,1.05,1.25,0.138,0.56
UUGGUCCGUAUGUGUGGUGCCACCGG [hsa-mir-1908],-0.0706,0.948,-0.147,-0.202,0.148
UUGGUCUUUCCCCUGUGGUCCCAA [hsa-mir-2909],0.152,0.207,-0.499,-0.158,-0.276
UUGGUGACAGCAGCAGUAGAGUUGCCAG [hsa-mir-6501],-0.445,0.272,0.0434,-0.632,-0.35
UUGGUGUGUAUUGCCUUGUCAA [hsa-mir-1179],-0.217,-0.0369,-0.723,-0.972,-0.924
UUGUAAUAGUGUAGAAUGUUGGUUAAC [hsa-mir-591],0.537,0.44,0.797,-0.133,0.358
UUGUCGUUAAAAAUAGCAA [hsa-mir-548n],-0.149,-0.863,0.889,-0.497,-0.847
UUGUCUCCUCAAGUUGCGACGAGACAG [hsa-mir-4645],-0.451,-0.585,-1.13,-0.254,-0.358
